Data from US20250042970A1 (AURINIA PHARMACEUTICALS, published 2025).

Tests used:
FLAG-tagged human BAFF [1] = target: T1, FLAG-tagged human BAFF (human, UniProt Q9Y275 134-285, limits assumed); assay: BIACORE SPR
T1 construct: used in BIACORE (Ex. 9) and KINEXA (Ex. 11); also called huBAFF
Protocol: (§1) For human BAFF, cynomolgus monkey APRIL, and mouse APRIL measurements, mouse monoclonal antibody (IgG1) anti-FLAG M2 (Sigma Aldrich, Cat. No. F1804) was immobilized on CM3 sensor chips (GE Healthcare, Cat. No. BR-1005-41) according to the manufacturer's protocol. Antibody was diluted to 30 μg/ml in immobilization buffer (10 mM pH 5±0.20; GE Healthcare; GE Healthcare, Catalog No. BR-1003-51). […] Unreacted sites were quenched with 35 μl of 1M ethanolamine-HCl, pH 8.5 (GE Healthcare, GE Healthcare, Cat. No. BR-1000-50). This procedure typically yielded 3,000-4,000 response units (RU) of coupled antibody.
(§2) The fusion polypeptides were diluted in HBS-EP buffer and flowed over ligand-coated sensor chips. The variant BCMA-Ig and surrogate control fusion proteins were injected at three concentrations (1.5 nM, 15 nM, and 150 nM at 30 μl/min for 2 minutes per association phase) in a single binding cycle, followed by a 20 minute incubation with HBS-EP buffer containing no protein at the same flow rate. A similar protocol was followed for Z-TACI-Ig, except that the injections were at 4.5 nM, 45 nM, and 450 nM.
(§3) Sequence optimization involved generating revertants from the variant BCMA ECD-Ig molecules using standard site-directed mutagenesis methods such as by SOEing as described herein above. Single as well as multiple revertants from twelve different variant-BCMA-pIg18 were generated, cloned in the pcDNA3.1 vector (Life Technologies, as described in Example 6), expressed and purified as described in Examples 6-8. The resulting proteins were assayed for their binding characteristics using Surface Plasmon Resonance as described in Example 9.

[2] = target: T2, FLAG-tagged cynomolgous APRIL (cynomolgus monkey, UniProt A0ACM8R0G4 110-250 (rhesus entry)); assay: BIACORE SPR
T2 construct: FLAG-tagged, expressed with TPA signal peptide; also called cyAPRIL
T2 sequence: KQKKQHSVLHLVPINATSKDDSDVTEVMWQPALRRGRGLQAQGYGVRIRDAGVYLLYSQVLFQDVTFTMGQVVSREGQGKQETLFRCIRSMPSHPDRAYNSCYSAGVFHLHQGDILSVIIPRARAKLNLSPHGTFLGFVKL
Protocol: as §1, §2, §3

FLAG-tagged human BAFF [3] = target: T1, FLAG-tagged human BAFF; assay: KinExA
Protocol: Equilibrium measurements were performed using FLAG-tagged, recombinant huBAFF and huAPRIL ligands. Fixed ligand concentrations of human BAFF or human APRIL were incubated with serial dilutions of the variant BCMA ECD-Ig fusion polypeptides, and free ligand was detected in a KINEXA 3200 Instrument. variant BCMA ECD-Ig fusion polypeptides were first diluted in equilibration buffer (1×PBS, pH 7.4, 1 mg/ml BSA) to a range of concentrations from 10 nM to 100 fM. The linear portion of the dilution series was typically 2-fold. Ligands were diluted in equilibration buffer to fixed concentrations ranging from 5 to 20 pM and then incubated with the variant BCMA-Ig dilutions in total reaction volumes ranging from 4.5 to 15 ml. Samples were incubated at room temperature for 48-72 hours to reach equilibrium. For each data point, a fresh column of 850 μl of bead slurry coated with Variant BAv-238475-Ig was introduced into the KINEXA flow cell. Equilibrated samples ranging from 1 to 5 ml reaction volume were injected at a flow rate of 0.25 ml/min. […] The DyLight 649 fluorescent signal was detected using the red filter set (620/30 nanometer excitation filter, 670/40 nanometer emission filter, 645 nanometer dichroic filter) on the KinExA instrument and converted to a voltage signal that was directly proportional to the concentration of free ligand in the equilibrated sample.
The various fusion proteins described above were expressed and purified as described previously (Examples 2 and 3 for the CET1019AS based plasmids and Examples 7 and 8 for the pcDNA based plasmids). […] The BAv9-1-Ig Fc proteins typically exist in solution as a dimeric fusion protein. The purified fusion proteins were assayed for binding activity using BIACORE (Example 9) and KINEXA (Example 11) assays.

B1: Variant 50237844-Ig (Fc fusion, human)
chain: AGQCSQSEYYDRLIRACIPCQLRCSSNNPPVICQRYCNAGVTNSVKGTNAERKSSVECPPSPAPPVAGPSVFLFPPKPKDTLMISRTPEVTCVVVDVSHEDPEVQFNWYVDGVEVHNAKTKPREEQFNSTFRVVSVLTVVHQDWLNGKEYKCKVSNKGLPAPIEKTISKTKGQPREPQVYTLPPSREEMTKNQVSLTCLVKGFYPSDISVEWESNGQPENNYKTTPPMLDSDGSFFLYSKLTVDKSRWQQGNVFSCSVMHEALHNHYTQKSLSLSPGK
notes: domain: Fc; also called Parent 7
- fold improvement over control (FLAG-tagged human BAFF [1]): 5.5 fold
- fold improvement over control [2]: 0.5 fold

B2: Variant 50239978-Ig (Fc fusion, human)
chain: ARQCSPNEYYDSLIRACVPCQLRCSSNNPPVTCQRYCNAGVTNSVKGTNAERKSSVECPPSPAPPVAGPSVFLFPPKPKDTLMISRTPEVTCVVVDVSHEDPEVQFNWYVDGVEVHNAKTKPREEQFNSTFRVVSVLTVVHQDWLNGKEYKCKVSNKGLPAPIEKTISKTKGQPREPQVYTLPPSREEMTKNQVSLTCLVKGFYPSDISVEWESNGQPENNYKTTPPMLDSDGSFFLYSKLTVDKSRWQQGNVFSCSVMHEALHNHYTQKSLSLSPGK
notes: domain: Fc; also called Parent 12
- fold improvement over control (FLAG-tagged human BAFF [1]): 10.1 fold
- fold improvement over control [2]: 0.6 fold

B3: Variant 50238779-Ig (Fc fusion, human)
chain: AQQCSQNEYFDRLVNSCVPCRLRCSSNNPPLTCQHYCNAGVTNSVKGTNAERKSSVECPPSPAPPVAGPSVFLFPPKPKDTLMISRTPEVTCVVVDVSHEDPEVQFNWYVDGVEVHNAKTKPREEQFNSTFRVVSVLTVVHQDWLNGKEYKCKVSNKGLPAPIEKTISKTKGQPREPQVYTLPPSREEMTKNQVSLTCLVKGFYPSDISVEWESNGQPENNYKTTPPMLDSDGSFFLYSKLTVDKSRWQQGNVFSCSVMHEALHNHYTQKSLSLSPGK
notes: domain: Fc; also called Parent 1
- fold improvement over control (FLAG-tagged human BAFF [1]): 6.4 fold
- fold improvement over control [2]: 0.5 fold

B4: Variant 50237847-Ig (Fc fusion, human)
chain: AGQCSQNEYYDHLLRACVSCHVRCSSNNPPAICQRYCNAGVTNSVKGTNAERKSSVECPPSPAPPVAGPSVFLFPPKPKDTLMISRTPEVTCVVVDVSHEDPEVQFNWYVDGVEVHNAKTKPREEQFNSTFRVVSVLTVVHQDWLNGKEYKCKVSNKGLPAPIEKTISKTKGQPREPQVYTLPPSREEMTKNQVSLTCLVKGFYPSDISVEWESNGQPENNYKTTPPMLDSDGSFFLYSKLTVDKSRWQQGNVFSCSVMHEALHNHYTQKSLSLSPGK
notes: domain: Fc; also called Parent 3
- fold improvement over control (FLAG-tagged human BAFF [1]): 7.1 fold
- fold improvement over control [2]: 0.4 fold

B5: Variant 50239040-Ig (Fc fusion, human)
chain: ARQCSPSEYYDHLIRSCVPCQLRCSSNTPPVTCQRYCDAGVTNSVKGTNAERKSSVECPPSPAPPVAGPSVFLFPPKPKDTLMISRTPEVTCVVVDVSHEDPEVQFNWYVDGVEVHNAKTKPREEQFNSTFRVVSVLTVVHQDWLNGKEYKCKVSNKGLPAPIEKTISKTKGQPREPQVYTLPPSREEMTKNQVSLTCLVKGFYPSDISVEWESNGQPENNYKTTPPMLDSDGSFFLYSKLTVDKSRWQQGNVFSCSVMHEALHNHYTQKSLSLSPGK
notes: domain: Fc; also called Parent 10
- fold improvement over control (FLAG-tagged human BAFF [1]): 9.3 fold
- fold improvement over control [2]: 0.3 fold

B6: Variant 50239698-Ig (Fc fusion, human)
chain: ARQCSQNEYYDRLLRSCVPCHVRCSSNNPPVTCQRYCNAGVTNSVKGTNAERKSSVECPPSPAPPVAGPSVFLFPPKPKDTLMISRTPEVTCVVVDVSHEDPEVQFNWYVDGVEVHNAKTKPREEQFNSTFRVVSVLTVVHQDWLNGKEYKCKVSNKGLPAPIEKTISKTKGQPREPQVYTLPPSREEMTKNQVSLTCLVKGFYPSDISVEWESNGQPENNYKTTPPMLDSDGSFFLYSKLTVDKSRWQQGNVFSCSVMHEALHNHYTQKSLSLSPGK
notes: domain: Fc; also called Parent 5
- fold improvement over control (FLAG-tagged human BAFF [1]): 5.5 fold
- fold improvement over control [2]: 0.9 fold

B7: Variant 50240054-Ig (Fc fusion, human)
chain: AQQCSPNEYFDRLIRACIPCQLRCSSNTPPVTCQRYCNTGVTNSVKGTNAERKSSVECPPSPAPPVAGPSVFLFPPKPKDTLMISRTPEVTCVVVDVSHEDPEVQFNWYVDGVEVHNAKTKPREEQFNSTFRVVSVLTVVHQDWLNGKEYKCKVSNKGLPAPIEKTISKTKGQPREPQVYTLPPSREEMTKNQVSLTCLVKGFYPSDISVEWESNGQPENNYKTTPPMLDSDGSFFLYSKLTVDKSRWQQGNVFSCSVMHEALHNHYTQKSLSLSPGK
notes: domain: Fc; also called Parent 2
- fold improvement over control (FLAG-tagged human BAFF [1]): 6.4 fold
- fold improvement over control [2]: 0.7 fold

B8: Variant 50237854-Ig (Fc fusion, human)
chain: AGQCSQNEYFDHLIRACIPCDVRCSSNNPPVTCQRYCNAGVTNSVKGTNAERKSSVECPPSPAPPVAGPSVFLFPPKPKDTLMISRTPEVTCVVVDVSHEDPEVQFNWYVDGVEVHNAKTKPREEQFNSTFRVVSVLTVVHQDWLNGKEYKCKVSNKGLPAPIEKTISKTKGQPREPQVYTLPPSREEMTKNQVSLTCLVKGFYPSDISVEWESNGQPENNYKTTPPMLDSDGSFFLYSKLTVDKSRWQQGNVFSCSVMHEALHNHYTQKSLSLSPGK
notes: domain: Fc; also called Parent 4
- fold improvement over control (FLAG-tagged human BAFF [1]): 5.5 fold
- fold improvement over control [2]: 0.3 fold

B9: Variant 50238504R-Ig (Fc fusion, human)
chain: AGQCSQNEYYDRLIRACLPCHVRCSSNTPPATCQRYCNAGVTNSVKGTNAERKSSVECPPSPAPPVAGPSVFLFPPKPKDTLMISRTPEVTCVVVDVSHEDPEVQFNWYVDGVEVHNAKTKPREEQFNSTFRVVSVLTVVHQDWLNGKEYKCKVSNKGLPAPIEKTISKTKGQPREPQVYTLPPSREEMTKNQVSLTCLVKGFYPSDISVEWESNGQPENNYKTTPPMLDSDGSFFLYSKLTVDKSRWQQGNVFSCSVMHEALHNHYTQKSLSLSPGK
notes: domain: Fc; also called Parent 8
- fold improvement over control (FLAG-tagged human BAFF [1]): 4.5 fold
- fold improvement over control [2]: 0.2 fold

B10: Variant 50238494-Ig (Fc fusion, human)
chain: AGQCSQSEYYDRLIHACVPCQLRCSSNNPPATCQRYCNAGVTNSVKGTNAERKSSVECPPSPAPPVAGPSVFLFPPKPKDTLMISRTPEVTCVVVDVSHEDPEVQFNWYVDGVEVHNAKTKPREEQFNSTFRVVSVLTVVHQDWLNGKEYKCKVSNKGLPAPIEKTISKTKGQPREPQVYTLPPSREEMTKNQVSLTCLVKGFYPSDISVEWESNGQPENNYKTTPPMLDSDGSFFLYSKLTVDKSRWQQGNVFSCSVMHEALHNHYTQKSLSLSPGK
notes: domain: Fc; also called Parent 11
- fold improvement over control (FLAG-tagged human BAFF [1]): 7.6 fold
- fold improvement over control [2]: 1.3 fold

B11: BAv9-1-5L-pIg23 (Fc fusion, human)
chain: AGQCSQNEYFDHLIRACIPCQLRCSSNTPPLTCQRYCNAGVTNSVGGGGS
notes: domain: Fc; not shown: PIg23: PIg22 Fc with valine at 178 mutated to methionine
- Kd (FLAG-tagged human BAFF [3]): 0.291 pM
